In patent publication US20250296971A1, “GASTRIC INHIBITORY PEPTIDE RECEPTOR LIGANDS” (priority 2021, published 2025):
*1 amine or outer side, *2 acyl side, *3 side chain or, on linkers, in order; H or OH if unused. Bridges are numbered along the chain shown (N, C = ends). Primed or numbered codes have the meaning given here. Where no end group is shown, it is not given here. [ ]: non-standard residue; d: D form. The star is where a group is joined. Ttds = 1,13-diamino-4,7,10-trioxatridecan-succinamic acid, NCCCOCCOCCOCCCNC(=O)CCC(=O)*; 2,6‑lutidylidene = 2Lut, Cys-Cys crosslink via 2,6-lutidylidene; APAc″ = 4-amino-1-carboxymethylpiperidine, NC1CCN(CC(=O)*)CC1; dE(AGLU) = D-glutamic acid bearing 1-amino-1-deoxy-D-glucitol; MeO36PEG = monodisperse PEG 36 units conjugated with acetyl; Pro(trans-4-NH2) = O=C([C@@H]1C[C@@H](N[*:3])CN1[*:1])[*:2]; DOTA = O=C(O)CN1CCN(CC(=O)O)CCN(CC(=O)*)CCN(CC(=O)O)CC1; MeO2kDaPEGAc″ = methoxy polydisperse 2 kDa PEG acetyl; 2Lut = 2,6-lutidylidene bridge between two thiols; Trp(5-Cl) = N[C@@H](Cc1c[nH]c2ccc(Cl)cc12)C(=O)O; Phe(3,5-Cl2) = N[C@@H](Cc1cc(Cl)cc(Cl)c1)C(=O)O; Pyridine(2,6-diCH2) = c1cc(C[*:1])nc(C[*:2])c1; APAc = 4-amino-1-carboxymethylpiperidine; Phe(2-Cl) = N[C@@H](Cc1ccccc1Cl)C(=O)O; Glutaryl = O=C(CCCC(=O)[*:2])[*:1]; AGLU = 1-amino-1-deoxy-D-glucitol; Hyp = O=C(O)[C@@H]1C[C@@H](O)CN1; Suc = O=C(CCC(=O)[*:2])[*:1]; 2Lut(3) = 2,6-lutidylidene; dDab = NCC[C@@H](N)C(=O)O; hCys = N[C@@H](CCS)C(=O)O; Api = NC1(C(=O)O)CCNCC1; Thp = NC1(C(=O)O)CCOCC1; mli″ = maleimide

Experiments:
[1] = target: human Gastric Inhibitory Peptide Receptor (GIPR) (human) (UniProt P48546); test: FACS competition vs biotinylated GIP-057 on CHO-K1-hGIPR cells; category B: pIC50 7.1-8.0
[2] = target: human Gastric Inhibitory Peptide Receptor (human) (UniProt P48546); test: FACS competition with GIP-057 on CHO-K1-hGIPR cells; pIC50 category B: 7.1-8.0
Sequence of human Gastric Inhibitory Peptide Receptor (human) (P48546 22-466 limits assumed): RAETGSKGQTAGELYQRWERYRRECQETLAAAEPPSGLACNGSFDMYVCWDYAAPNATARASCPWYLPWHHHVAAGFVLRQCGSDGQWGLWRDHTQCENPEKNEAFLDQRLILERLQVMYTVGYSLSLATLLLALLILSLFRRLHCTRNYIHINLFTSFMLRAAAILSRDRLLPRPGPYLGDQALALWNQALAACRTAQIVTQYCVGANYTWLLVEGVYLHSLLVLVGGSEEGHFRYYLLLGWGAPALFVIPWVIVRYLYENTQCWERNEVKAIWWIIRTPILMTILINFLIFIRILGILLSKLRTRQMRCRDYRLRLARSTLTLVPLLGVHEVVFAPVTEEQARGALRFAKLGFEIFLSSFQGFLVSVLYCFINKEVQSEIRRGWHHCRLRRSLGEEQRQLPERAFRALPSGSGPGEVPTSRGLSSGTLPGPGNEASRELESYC

Sequence of human Gastric Inhibitory Peptide Receptor (GIPR) (human) (P48546 22-466 limits assumed): as above

Row | Molecule | pIC50 [1] | pIC50 [2]
1 | Ac-Asp-Trp-5Clw-Hyp-Glu-leu-[Cys(2Lut)-Apc(DOTA)-Leu-Phe-Cys]-NH2 (peptide) | 7.1 to 8 pic50 | –
2 | DOTA-Ttds-Nmd-Trp-Trp-Pro-Glu-Leu-[Cys(3MeBn)-Aib-Leu-Ile-AET] (peptide) | – | 7.1 to 8 pic50
3 | Ac-D[Phe(3,5-Cl2)][Trp(5-Cl)][Hyp]E[dL]C[Thp]LIC-NH2 (linker 7-11 via Pyridine(2,6-diCH2); SMILES CC[C@H](C)[C@@H]1NC(=O)[C@H](CC(C)C)NC(=O)C2(CCOCC2)NC(=O)[C@@H](NC(=O)[C@@H](CC(C)C)NC(=O)[C@H](CCC(=O)O)NC(=O)[C@@H]2C[C@@H](O)CN2C(=O)[C@H](Cc2c[nH]c3ccc(Cl)cc23)NC(=O)[C@H](Cc2cc(Cl)cc(Cl)c2)NC(=O)[C@H](CC(=O)O)NC(C)=O)CSCc2cccc(n2)CSC[C@@H](C(N)=O)NC1=O) [Ac-Asp-Egn-5Clw-Hyp-Glu-leu-[Cys(2Lut)-Thp-Leu-Ile-Cys]-NH2] | 7.1 to 8 pic50 | –
4 | {MeO36PEG-APAc}-DW[Trp(5-Cl)][Pro(trans-4-NH2)]E[dL]C[Api](DOTA)LIC-{APAc-dE(AGLU)-NH2} (linker 7-11 via Pyridine(2,6-diCH2)) [MeO36PEG-APAc-Asp-Trp-5Clw-Tap-Glu-leu-[Cys(2Lut)-Apc(DOTA)-Leu-Ile-Cys]-APAc-glu(AGLU)-NH2] | – | 7.1 to 8 pic50
5 | Ac-DW[Trp(5-Cl)][Hyp]F[dL]C[Thp]LIC-NH2 (linker 7-11 via Pyridine(2,6-diCH2)) [Ac-Asp-Trp-5Clw-Hyp-Phe-leu-[Cys(2Lut)-Thp-Leu-Ile-Cys]-NH2] | 7.1 to 8 pic50 | –
6 | {AGLU-Glutaryl-APAc″}-DW[Trp(5-Cl)][Hyp]E[dL]C[Api](DOTA)LIC (linker 7-11 via Pyridine(2,6-diCH2); not fully specified (C-terminus)) [AGLU-Glutar-APAc-Asp-Trp-5Clw-Hyp-Glu-leu-[Cys(2Lut)-Apc(DOTA)-Leu-Ile-Cys]-lys(MeO36PEG)-NH2] | – | 7.1 to 8 pic50
7 | {AGLU-Glutaryl}-DW[Trp(5-Cl)][Pro(trans-4-NH2)]E[dL][dC][Api](DOTA)LI[dC]-{APAc-dE(AGLU)-NH2} (linker 7-11 via Pyridine(2,6-diCH2)) [AGLU-Glutar-Asp-Trp-5Clw-Tap-Glu-leu-[cys(2Lut)-Apc(DOTA)-Leu-Ile-cys]-APAc-glu(AGLU)-NH2] | – | 7.1 to 8 pic50
8 | {DOTA-Ttds}-DW[Trp(5-Cl)][Hyp]E[dL]C[Thp]LFC-NH2 (linker 7-11 via 2Lut(3)) [DOTA-Ttds-Asp-Trp-5Clw-Hyp-Glu-leu-[Cys(2Lut)-Thp-Leu-Phe-Cys]-NH2] | 7.1 to 8 pic50 | –
9 | Ac-DW[Trp(5-Cl)][Hyp]E[dL]C[Thp]LFC-NH2 (linker 7-11 via Pyridine(2,6-diCH2); SMILES CC(=O)N[C@@H](CC(=O)O)C(=O)N[C@@H](Cc1c[nH]c2ccccc12)C(=O)N[C@@H](Cc1c[nH]c2ccc(Cl)cc12)C(=O)N1C[C@H](O)C[C@H]1C(=O)N[C@@H](CCC(=O)O)C(=O)N[C@H](CC(C)C)C(=O)N[C@H]1CSCc2cccc(n2)CSC[C@@H](C(N)=O)NC(=O)[C@H](Cc2ccccc2)NC(=O)[C@H](CC(C)C)NC(=O)C2(CCOCC2)NC1=O) [Ac-Asp-Trp-5Clw-Hyp-Glu-leu-[Cys(2Lut)-Thp-Leu-Phe-Cys]-NH2] | 7.1 to 8 pic50 | –
10 | {AGLU-Glutaryl}-DW[Trp(5-Cl)][Pro(trans-4-NH2)]E[dL]C[dK](DOTA)LIC-{APAc-dE(AGLU)-NH2} (linker 7-11 via Pyridine(2,6-diCH2)) [AGLU-Glutar-Asp-Trp-5Clw-Tap-Glu-leu-[Cys(2Lut)-lys(DOTA)-Leu-Ile-Cys]-APAc-glu(AGLU)-NH2] | – | 7.1 to 8 pic50
11 | Ac-D[Phe(2-Cl)][Trp(5-Cl)][Pro(trans-4-NH2)](DOTA)E[dL]C[Thp]LIC-NH2 (linker 7-11 via Pyridine(2,6-diCH2)) [Ac-Asp-Ocf-5Clw-Tap(DOTA)-Glu-leu-[Cys(2Lut)-Thp-Leu-Ile-Cys]-NH2] | 7.1 to 8 pic50 | –
12 | Suc-W[Trp(5-Cl)][Hyp]E[dL]C[Thp]LIC (linker 6-10 via 2Lut; not fully specified (C-terminus); printed as HO-Succinyl-Trp-5Clw-Hyp-Glu-leu-[Cys(2Lut)-Thp-Leu-Ile-Cys]-APAc-lys(MeO2kDaPEGAc)-Lys(DOTA)-NH2) [HO-Succinyl-Trp-5Clw-Hyp-Glu-leu-[Cys(2Lut)-Thp-Leu-Ile-Cys]-APAc-lys(MeO2kDaPEGAc)-Lys(DOTA)-NH2] | – | 7.1 to 8 pic50
13 | Ac-DW[Trp(5-Cl)][Hyp]E[dL][hCys][Thp]LIC-NH2 (linker 7-11 via mli″) [Ac-Asp-Trp-5Clw-Hyp-Glu-leu-[Hcy(mli)-Thp-Leu-Ile-Cys]-NH2] | 7.1 to 8 pic50 | –
14 | XWXXEXCXLIC (N-term AGLU-Glutar-APAc; Hse; 5Clw; Tap; leu (D-Leu); thioether cycle [Cys(2Lut)..Cys]; Apc(DOTA); C-term APAc-glu(AGLU)-NH2) [AGLU-Glutar-APAc-Hse-Trp-5Clw-Tap-Glu-leu-[Cys(2Lut)-Apc(DOTA)-Leu-Ile-Cys]-APAc-glu(AGLU)-NH2] | – | 7.1 to 8 pic50
15 | Ac-D[Phe(2-Cl)][Trp(5-Cl)][Hyp]E[dL]C[Api](DOTA)LIC-NH2 (linker 7-11 via Pyridine(2,6-diCH2)) [Ac-Asp-Ocf-5Clw-Hyp-Glu-leu-[Cys(2Lut)-Apc(DOTA)-Leu-Ile-Cys]-NH2] | 7.1 to 8 pic50 | –
16 | Suc-W[Trp(5-Cl)][Hyp]E[dL]C[Api](MeO2kDaPEGAc″)LIC-{APAc-Lys(DOTA)-NH2} (linker 6-10 via Pyridine(2,6-diCH2)) [HO-Succinyl-Trp-5Clw-Hyp-Glu-leu-[Cys(2Lut)-Apc(MeO2kDaPEGAc)-Leu-Ile-Cys]-APAc-Lys(DOTA)-NH2] | – | 7.1 to 8 pic50
17 | {AGLU-Glutaryl}-DW[Trp(5-Cl)][Pro(trans-4-NH2)]E[dL]C[dDab](DOTA)LIC-{APAc-dE(AGLU)-NH2} (linker 7-11 via 2,6‑lutidylidene) [AGLU-Glutar-Asp-Trp-5Clw-Tap-Glu-leu-[Cys(2Lut)-dab(DOTA)-Leu-Ile-Cys]-APAc-glu(AGLU)-NH2] | – | 7.1 to 8 pic50
18 | {AGLU-Glutaryl}-DW[Trp(5-Cl)][Pro(trans-4-NH2)]E[dL][dC][Api](DOTA)LIC-{APAc-dE(AGLU)-NH2} (linker 7-11 via Pyridine(2,6-diCH2)) [AGLU-Glutar-Asp-Trp-5Clw-Tap-Glu-leu-[cys(2Lut)-Apc(DOTA)-Leu-Ile-Cys]-APAc-glu(AGLU)-NH2] | – | 7.1 to 8 pic50
